Assay results: PMC11915804, “In situ structures of the contractile nanomachine myophage Mu in both its extended and contracted states” (Journal of Virology, 2025)

Key:
hub protein gp44 = biological target: T1, hub protein gp44 (phage Mu, UniProt P08558 1-379); assay: cryo-EM structure; purified phage Mu virions in the extended state (native phage) in phage buffer (10 mM MgCl2, 5 mM NaCl, 10 mM Tris-HCl, pH 7.4); icosahedral, symmetry-mismatch and local reconstruction; 3.2 Å (3-fold capsid), 3.4 Å (portal-adaptor), 3.5 Å (terminator-tail), 3.3 Å (baseplate); details: both partners purified
T1 construct: baseplate hub protein gp44 of myophage Mu, as it stands in the virion; Trimer; Model deposited here; source: phage Mu virions grown on E. coli (ATCC 23724), purified (PEG 8000/NaCl precipitation, CsCl gradient)
T1 sequence (looked up): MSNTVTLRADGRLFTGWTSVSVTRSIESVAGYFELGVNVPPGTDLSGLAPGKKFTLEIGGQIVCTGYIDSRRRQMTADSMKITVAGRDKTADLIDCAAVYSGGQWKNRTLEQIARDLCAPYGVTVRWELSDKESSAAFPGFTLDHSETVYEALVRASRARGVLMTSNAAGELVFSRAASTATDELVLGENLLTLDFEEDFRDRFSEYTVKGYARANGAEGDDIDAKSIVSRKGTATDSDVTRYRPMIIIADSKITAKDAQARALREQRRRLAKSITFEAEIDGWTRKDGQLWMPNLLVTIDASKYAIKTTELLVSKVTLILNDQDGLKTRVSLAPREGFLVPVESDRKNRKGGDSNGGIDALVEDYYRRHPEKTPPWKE

[1] = biological target: the molecule itself; assay: as above

B1: spike protein gp45 (natural protein, phage Mu, UniProt Q9T1V4 1-197, looked up)
chain: MERVNDSALNRLLTPLMRRVRLMLARAVVNVINDGRKVQNLQVGLLDDEESDEVERLQNYGHFSVPLPGAEALIACVGAQRDQGIAVVVEDRRYRPTNLEPGDAGIYHHEGHRIRLTKDGRCIITCKTVEVYADESMTVDTPRTTFTGDVEIQKGLGVKGKSQFDSNITAPDAIINGKSTDKHIHRGDSGGTTGPMQ
notes: baseplate spike protein gp45 of myophage Mu, as it stands in the virion; Trimer; Model deposited here; source: phage Mu virions grown on E. coli (ATCC 23724), purified (PEG 8000/NaCl precipitation, CsCl gradient)
B1 was tested, and the binding result (hub protein gp44) was “binds” and the “stoichiometry N” value [1] was 3.
